# According to the nanobody polyreactivity screen of Harvey et al. (2022):
# Assay: yeast display, Sf9 membrane polyspecificity reagent, FACS + sequencing; frameworks hold sequencing errors
# Summary of the method: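 Galactose induction of a Saccharomyces cerevisiae BJ5465 synthetic nanobody display library ran 36–48 hours. The cells were then stained for 1 hour at 4 °C with 10% biotinylated, detergent-solubilized Sf9 membrane reagent, pulled down on streptavidin microbeads and FACS-sorted into low and high (top ~1%) gates on expression and reagent-binding fluorescence. Labels for polyreactivity follow the gate of origin.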
row,Sequence,polyreactivity (PSR sort gate)
1,QVQHVESGGGLVQAGGRLRLSCPATGSTFTWYALASYRQAPGKERELVAAISRGGSTNYADSVKGRFTISRDNAKNSVYLQMNSLIPEDTAVYYCAAESYWRDVYWGQGTQVTVSS,low polyreactivity
2,QVQLVESGGGLVQAGGSLRLSCAASGRTFGRNTMGWYRQAPGKERELVAAIDWSGGSTYYADSVKGRFTISRDNAKNTVYLQMNSLKPEDTAVYYCAAASRYPVNYYYWGQGTQVTVSS,high polyreactivity
3,QVKLVESGGGLVKAGGSLRLSCAASGSISDWYAMGWYIQAPGKERELVAAISNSDGSTYYADSEKGRFTISRDNAKNTVYLQMNSLQPEYTAVYYCNASDAHEDRKSEYWGQGTQVTVSS,low polyreactivity
4,QVQLVESGGGLVQAGGSLRLICAASGSIFFSYAMGSYRQAPGKERELVAGINRSGGSTYADSVKGRFTISRDNAKNTVNLQMTSLKPEDTAVYYCAAKYYSERSRYHYWGQGTQVTVSS,low polyreactivity
5,QVQLVESGGGLVQAGGSLRLSCAASGRIFDRNAMGWYRPSPGTERELLAAIDDSGGDTSYADSVKGRFTISRDNAKNTVYLQMNSLKPEDTAVYYCNAGYADFVTYPRYYYWGQGTQVTVSS,low polyreactivity
6,QVQLQESGGGLVQAGGSLRLSCAASGSNFDTPTMGWYRQAPGKERELVASSAYDDNTYYADSVKGRFTISRYNAKNTVYLQRNSLKPGDTAVYYCAVTDRIYYYFVYWGQGTRVTVSS,high polyreactivity
7,QVQLVESGGGLVQAGGSLRLSCAASGRTFNYNAMGWYRQAPGKERELVAAISWGGGSTFYAVSEKGRFTISRDNAKNTVYLQMNTLKPEDTAVYYCAADRQYGNRGAYYYWGQGTQVTVSS,low polyreactivity
8,QVQHVESVGGLDQAGGSLRLSSAASGRTFYLYAMGWYRQATGKEREFVADINSSGGSTYYADSVKGRFTISRDNAKNTVYLQMNSLKPEDTAVYYCAAYPIPRGRDYWGQGTQVTVSS,low polyreactivity
9,QVQLVESGGGLVQAGGSLRLSCAASGSTFWVYAMGWYRQAPGKERELVATISRGGSTNYADSVKGRFTISRDNAKNTVYLQMNSLKPEDTAVYYCAAPRFYGYGYEYWGQGTQVTVSS,low polyreactivity
10,QVQLVESGGGLVQAGGSLSLSCAASGRTFRVYAMGSYRQSPRKERELVAAITNGGSTNYADSVKGRFTISRDNAKNTVYLQMNSLKPEDTAVYYCARVHRSYVAAQGVYVGNYYWGQGTQVTVSS,high polyreactivity
11,QVQLVESGGGLVQAGGSLRLSCAASGSIFPYYAMGWYRQAPGKERELVAAITYIGGDTYYADSVKGRFTISRDNAKNTVYLQMNSLKPEDTAVYYCAAELSWRQYDYEYWGQGTQVTVSS,low polyreactivity
12,QVQLVESGGGLVQAGGSLRLSCAASGTILRPYAMGWYRQAPGKERELVAAISTSGGRTFYADSVKGRFTISRDNAKNTVYLQMYSLNPEDTAVYYCAAVGYRFGSNYWGQGTQVTVSS,high polyreactivity
13,QVQLEESGGCLVQAGGSLRLSCAASGFTIRDYTMGWSRQAPGKERELVAPISRSGGSTYYADSVKGRFTISRDNATNTVYLQMYSLKPEDTAVYYFAALWHAVFYADYDYWGQGTQVSVSS,high polyreactivity
14,QVQLVESGGGLVQAGGSLRLSCAASGRTFSGYAMGWYRQAPGKERELVAGINWSGDSTYYADSVKGRFTISRDNAKNTVYLQMNSLKPEDTAVYYCAASRSGTYDWGQGTQVTVSS,high polyreactivity
15,QVQLVESAGGLVQAGGSLRLSCAASGSTFPKYAMGWSRQAPGKERELVASISVTTGSTYYADSVKGRFTISRDNAKNTVYLQMNSLKPEDTAVYYCAKRTYSRKFRGAYNYGGQGTQVTVSS,high polyreactivity
16,QVQLQESGGGMVLAGGSLRLSCSASGTISVYGTMGWYRQAPGKEREFVATIDPGTHTNYADSVKDRFTISRDNAKNTVYLKMNSLKPEVTAVYSCAVEAGSDWPYRYWGQGTQVTVSS,low polyreactivity
17,QVQLVESGGGLVQAGGSLRLSCAASGRTFPGKAMGWYRQAPGKERELVAAISKSSSRTYYADSVKGRFTISRDNAKNTVYLQMNSLKAEDTAVYYCAASSFNNGHRYDYWGQGTQVTVSS,high polyreactivity
18,QVQLVESGGGLVQAGGSLRLSCAASGSTFTAKAMGWYRQAPGKERELVASISARDGSTYADSVKGRFTISRDNAKNTVYLQMNSLKPEDTAVYYCNAAYFHIFPYDYDYWGQGTQVTVSS,low polyreactivity
19,QVHLVESGGVLVQAGCSLRLSCSASGSTFDFNAMGWYRQAPGKERELVAAITSGDSTNYADSVQGRFTISRDNAKNTVYLQMNSLKPEDTAVYYCAARYYWKYITSAARRAGSDYWGQGTQVTVSS,low polyreactivity
20,QVQLVESGGGLVQAGGSLRLSCAASGSIFWANAKGWYRQAPGKERELVATITSGGRTYYADSVKGRFTISRDNAKNTVYLQMNSLKPEDTAVYYCARVPPQYRWGRRLVYVHVDYWGQGTQVTVSS,low polyreactivity
21,QVQLVESGGGLVQAGGSLRLSCAASGGTFVYNAMGWYRQAPGKERELVAAIRVRGDTTYYADSVKGRFTISRDNAKNTVYLQMNSLKPEDTAVYYCAAYPDYSYYYWGQGTQVTVSS,high polyreactivity
22,QVQLVESGGGLVQAGGSLRLSCAASGFIFYRYAMGWYRQAPGKERELVAAISRGDSTYYADSVKGRFTISRDNAKNTVYLQMNSLKPEDTAVYYCNADRPRYTYRATTYTGRYDYWGQGTQVTVSS,low polyreactivity

row,Sequence,polyreactivity (PSR sort gate)
1,QVQLVESGVGLVQAGGSLRLICAASGFIFFGNAMGWYRQAPGKERQLVAVITWSGGSTYADSVKGRFTISRDNAKNTVYLQMNSLKPEDTAVYYCAADQQTWWQYSLINEYDYWGQGTQVTVSS,low polyreactivity
2,QVQLVESGGGLVQAGGSLRLSCAASGITFVANAMGWYRQAPGKERELVAAISYSGASTYADSVKGRFTISRDNAKNTVYLQMNSLKPEDTAVYYCAKDGPYTYGREIYVYWGQGTLVTVSS,low polyreactivity
3,QVQLVESGGGLVQAGGSLRLSCAASGRILDAYTMGWYRQAPGKERQLVAAISASGVSTYYADSVKGRFTISRDNAKNTVYLQMNSLKPEDTAVYYCAKDYYQQTGFLEYDYWGHGTQVTVSS,low polyreactivity
4,QVQLVESGAGLVQAGGSLRLSCADSGIIFSSNAMGWYRQAPGKERELVASITSAGNTYYADSVKGRFTISRDNAKNTVYLQMNSLKPEDTAVYYCYARYYYQYFHFSWSYPYGSWGQGTQVTVSS,high polyreactivity
5,QVQLVESGGGLVQAGGSLRLSCAASGSTIDTNAMGWYRQAPGTDRELVAAITSGGNTYADSVKGRFTISRDNAKNTVYLQMNSLKPEDTAVYYCAAEDVYTGWYDYCGQGTQVTVSS,low polyreactivity
6,QVQLVESGGGLVQAGGSLRLSCAASGSIFTGNAMGWYRQAPGKERELVAAITNGGITNYADSVKGRFTISRDNAKNTVYLQMNSLKPEDTAVYYCAADYVDFYSFRRFDYWGQGTQVTVSS,low polyreactivity
7,QGQLVESGGCLVQEGGSLRLSCAASGRIFWYYTMGWYRQAPGKERELVATIRSGDRKNYADSVKGRFTISLDNAKNTVYLQMNSLKPDDTAVYYCAATRALVNTHRYYYWGQGTQVTVSS,high polyreactivity
8,QVHLVESGGGLVQAGGSLRLSCAASGSIFGTYAMGWYRQPPGKESELVAAITSSGGSTYYADSVKGRFTISRDNAKNTVYLQMNSLKPEDTAVYYCAAYLRIRVGVPVRTYYYWGQGTQVTVSS,high polyreactivity
9,QVQLVESGGGLVQAGGSLRLSCAASGSTFKRYAMGWYRQAPGKEWELVAAISASGGSTSYADSVKGRFTISRDKAKNTVYLQMNSLIPEDTAVYYCARDRFRSRLDYWGQGTQVTVSS,high polyreactivity
10,QVQLVESGGGLVQAGGSLRLSCAASGSIIGRYAMAWYRPAPGQVRELVAAISTGGGRTYYADSVKGRFTISRDNAKNTVYLQMNSLKAEDTAVYYCNAGPYKGWGRMDYWGQGTQVTVSS,high polyreactivity
11,QFQLVESGGGLVQAGGSLRLSCAASGSTFAFYAMGRYRQAPGKERELVPAINLGGGSTYYAASVKGRFTISRDNAKNTVYLQMNSLKPEDTAVYYCAADFWTISWPVFDTYEYWGQGTQVTVSS,low polyreactivity
12,QVQIVESGGGLVQAGGSLRLSCAASGRILWFYAMGWYRHAPGKERELVAAITDSGGSTYYADSVKGRFTISRDNAKNPVYLQMNSLKPEDTAVYYCAADGDRYISGGGLAHYDYWGQGTQVNVSS,low polyreactivity
13,QVQLVESGGGLVQAGGSLRLSCAASGRIFRIYAMGWYRQAPGKERELVARITYSGGSTYYADSVKGRFTISRDNAKNTVYLQMNSLKPEDTAVYFCAADWLGYQYGYWGQGTQVTVSS,low polyreactivity
14,QVQLVESGGGLVQAGGSLRLSCAASGSTFSGYAMGWDRQAPGNERELVAAITSGGITNYADSVKGRFSLSRDNAKNTVYLQMNSLKPEDTAVYYCAKSVSGIGVGYDYWGQGTQVTVSS,low polyreactivity
15,QVQLVESVGGLVQAGRILRISCAASGFTLYYYDKGWYRQAPGKQRELVAGISSGDSTYYADSLKGRFTISRDNAKNTVYLHMNSLKPEDTAVYYCATGDSLYYRYWSNNYWGQGTQVTVSS,high polyreactivity
16,QLQLVESGGGLVQAGGSLRLSCAASGLIFRYYTMGWYRQAPGKERELVATITRGDSTYYADSVKGRFTISRDNAKNTVYLQMNSLKPEDTAVYFCAAAGWSRVGYWLKYDYWGQGTQVTVSS,high polyreactivity
17,QVQLVESGGGLVQAGGSLRLSCAASGSTFVRYAMGWYRQAPGKERELVAAIDGGGTTKYADSVKGRFTISRDNAKNTVYLQMNSLKPEDTSVYYCAADQVWGYDSWGQGTQVTVSS,low polyreactivity
18,QVQLVESGGALVQAGGSLRLSCAASGRTFGLTAMGWYRQAPGKERELVAAITWSDDDTYYADSVKARFTNSRDNAKNTVYLQMNSLKPEDTAVYYCAATYPYRQYDYWGQGTQVTVSS,low polyreactivity
19,QVQLVESGGGLVQAGGSLLLSCAASGYIFWSNTMGWYRQAPGKERELVAAISQSTASTYYADSVKGRFTISRDNAKNTVYLQMNSLKPEDTAVYYCAAYYNFGDYEYDYWGQGTQVTVSS,low polyreactivity
20,QVQLVESGGGLVQAGASLRLSCAASGRTFSENAMGWYRQAPGKERELVAAISGSGGRTYYADSVKGRFTISRDNEKNTVYLQMKSLKPEVTAVYYCAKVTRYGSTYDYWGQGTQVTVSS,high polyreactivity
21,QGQLVESGGGLVQAGGSLRLSCAASGLTLYYYAMGWYIQAPGKERELVAAINRGGSTYYADSVKGRFTISRDNAKNTVYLQMNSLKPEDTAVYYCAVDYGVRDLTYYYWGQGTQVTVSS,low polyreactivity
